Source: US20130336885A1 (Genentech, published 2013)

Legend:
[1] = biological target: T1, human LgR5 ECD (amino acids 22-557 fused to His-Fc expressed in a baculovirus system, or amino acids 22-558 … (human, UniProt O75473 22-557)); assay: BIAcore-3000 SPR, IgG captured on goat anti-human Fc, human LgR5 ECD-Fc injected, 25 C, 1:1 Langmuir model
T1 construct: not shown: C-terminal His-tagged Fc
T1 sequence: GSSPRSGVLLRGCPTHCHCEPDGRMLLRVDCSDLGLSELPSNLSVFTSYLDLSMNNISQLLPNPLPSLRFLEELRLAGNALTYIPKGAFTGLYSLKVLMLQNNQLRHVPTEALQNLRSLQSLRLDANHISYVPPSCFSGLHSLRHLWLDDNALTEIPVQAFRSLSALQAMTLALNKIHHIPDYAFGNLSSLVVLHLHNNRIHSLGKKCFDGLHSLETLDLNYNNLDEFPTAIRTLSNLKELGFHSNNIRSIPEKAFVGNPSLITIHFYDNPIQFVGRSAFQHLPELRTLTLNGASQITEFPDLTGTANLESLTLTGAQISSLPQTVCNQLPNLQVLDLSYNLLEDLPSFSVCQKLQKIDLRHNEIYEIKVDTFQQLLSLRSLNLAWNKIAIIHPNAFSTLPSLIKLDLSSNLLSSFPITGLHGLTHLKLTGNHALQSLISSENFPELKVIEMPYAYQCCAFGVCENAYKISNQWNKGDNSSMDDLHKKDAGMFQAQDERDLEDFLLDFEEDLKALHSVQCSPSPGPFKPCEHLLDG
Protocol: The affinity of each 8E11 IgG variant for human LgR5 was determined by surface plasmon resonance using a BIAcore™-3000. BIAcore™ research grade CMS chips were activated with 1-ethyl-3-(3-dimethylaminopropyl) carbodiimide (EDC) and N-hydroxysuccinimide (NHS) reagents according to the supplier's instructions. Goat anti-human Fc IgGs were coupled to the chips to achieve approximately 10,000 response units (RU) in each flow cell. Unreacted coupling groups were blocked with 1M ethanolamine. For kinetics measurements, anti-LGR5 antibodies were captured to achieve approximately 300 RU. Two-fold serial dilutions of human LgR5ECD (amino acids 22-557 fused to His-Fc expressed in a baculovirus system, or amino acids 22-558 fused to Fc expressed from CHO cells; 125 nM to 0.49 nM) were injected in HBS-P buffer (0.01M HEPES pH7.4, 0.15M NaCl, 0.005% surfactant P20) at 25° C. with a flow rate of 30 μl/min. Association rates (kₒₙ) and dissociation rates (koff) were calculated using a 1:1 Langmuir binding model (BIAcore™ Evaluation Software version 3.2). The equilibrium dissociation constant (Kd) was calculated as the ratio koff/kₒₙ.

[2] = biological target: T1, human LgR5 ECD (amino acids 22-557 …); assay: SPR (BIAcore-3000), antibody captured by anti-human Fc, LgR5 ECD-Fc injected
[3] = biological target: T2, gD epitope-tagged LgR5 22-323 (amino acids 22-323 of SEQ ID NO: 67) with a C-terminal GPI anchor on … (human, UniProt O75473 22-323, C-terminal GPI anchor); assay: FACS on transiently transfected 293 cells
T2 sequence: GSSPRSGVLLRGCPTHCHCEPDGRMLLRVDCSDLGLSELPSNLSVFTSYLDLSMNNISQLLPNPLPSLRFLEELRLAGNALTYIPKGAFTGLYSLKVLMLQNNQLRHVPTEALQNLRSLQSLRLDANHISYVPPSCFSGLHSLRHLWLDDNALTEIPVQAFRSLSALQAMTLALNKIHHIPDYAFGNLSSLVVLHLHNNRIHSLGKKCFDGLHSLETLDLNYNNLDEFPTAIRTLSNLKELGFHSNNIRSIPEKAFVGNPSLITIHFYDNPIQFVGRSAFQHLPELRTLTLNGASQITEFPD

[4] = biological target: T3, gD epitope-tagged LgR5 424-907 (amino acids 424-907 of SEQ ID NO: 67) on transiently transfected 293 cells (human, UniProt O75473 424-907); assay: FACS on transiently transfected 293 cells
T3 sequence: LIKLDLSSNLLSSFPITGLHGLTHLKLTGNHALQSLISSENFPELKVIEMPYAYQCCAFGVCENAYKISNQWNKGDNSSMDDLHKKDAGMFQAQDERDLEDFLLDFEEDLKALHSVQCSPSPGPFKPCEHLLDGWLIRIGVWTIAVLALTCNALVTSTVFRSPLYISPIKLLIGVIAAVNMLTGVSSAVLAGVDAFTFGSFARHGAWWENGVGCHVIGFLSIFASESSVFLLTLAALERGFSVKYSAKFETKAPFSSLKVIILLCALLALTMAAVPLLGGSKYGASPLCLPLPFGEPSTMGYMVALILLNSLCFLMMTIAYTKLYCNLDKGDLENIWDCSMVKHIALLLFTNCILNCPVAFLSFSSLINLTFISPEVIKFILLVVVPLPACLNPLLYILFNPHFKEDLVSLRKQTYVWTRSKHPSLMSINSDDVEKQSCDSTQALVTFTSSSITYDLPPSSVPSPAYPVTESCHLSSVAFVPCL

[5] = biological target: T4, gD epitope-tagged LgR5 22-123 (amino acids 22-123 of SEQ ID NO: 67) with a C-terminal GPI anchor on … (human, UniProt O75473 22-123, C-terminal GPI anchor); assay: FACS on transiently transfected 293 cells
T4 sequence: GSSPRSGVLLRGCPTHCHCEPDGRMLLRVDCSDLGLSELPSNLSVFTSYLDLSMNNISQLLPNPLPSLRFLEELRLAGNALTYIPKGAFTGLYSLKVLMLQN

[6] = biological target: T5, gD epitope-tagged mouse LgR5 expressed on stably transfected 293 cells (mouse, UniProt Q9Z1P4 22-907); assay: FACS on 293 cells stably transfected with gD epitope-tagged LgR5, 10 ug/ml antibody, R-Phycoerythrin goat anti-human detection
T5 construct: also called gD-tagged mouse LgR5
T5 sequence: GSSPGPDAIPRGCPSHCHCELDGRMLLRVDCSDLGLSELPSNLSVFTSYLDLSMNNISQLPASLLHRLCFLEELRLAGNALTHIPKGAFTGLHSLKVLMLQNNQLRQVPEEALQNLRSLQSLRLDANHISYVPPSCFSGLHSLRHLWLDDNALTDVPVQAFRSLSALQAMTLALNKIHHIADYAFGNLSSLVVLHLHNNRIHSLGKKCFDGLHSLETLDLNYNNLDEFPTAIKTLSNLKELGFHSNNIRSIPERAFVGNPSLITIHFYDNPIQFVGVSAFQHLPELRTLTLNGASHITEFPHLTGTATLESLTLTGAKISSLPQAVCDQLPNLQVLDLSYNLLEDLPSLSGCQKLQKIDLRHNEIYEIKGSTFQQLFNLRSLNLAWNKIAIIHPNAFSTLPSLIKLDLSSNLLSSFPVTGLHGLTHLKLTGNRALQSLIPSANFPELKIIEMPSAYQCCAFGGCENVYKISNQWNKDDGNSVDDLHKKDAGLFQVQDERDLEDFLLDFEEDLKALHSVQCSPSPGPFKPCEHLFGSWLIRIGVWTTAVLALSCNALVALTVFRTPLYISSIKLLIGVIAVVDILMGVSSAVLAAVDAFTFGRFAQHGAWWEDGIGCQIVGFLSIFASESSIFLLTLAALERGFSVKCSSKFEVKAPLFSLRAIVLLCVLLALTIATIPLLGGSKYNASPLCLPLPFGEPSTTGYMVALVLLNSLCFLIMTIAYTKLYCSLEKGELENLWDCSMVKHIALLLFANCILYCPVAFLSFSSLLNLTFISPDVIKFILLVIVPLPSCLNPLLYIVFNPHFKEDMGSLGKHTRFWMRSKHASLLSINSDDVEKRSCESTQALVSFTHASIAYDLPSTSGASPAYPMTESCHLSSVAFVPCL
Protocol: Monoclonal antibodies were tested to determine if they cross-react with LgR5 from species other than human. […] Residues that are identical among all four species are indicated by asterisks (*). […] YW353 antibody binds human and cynomolgus monkey LgR5, but not rat or mouse LgR5. Ch8E11 and hu8E11.v2 antibodies bind all four species of LgR5, although binding to rat LgR5 is not as strong as binding to human, cynomolgus monkey, or mouse LgR5. 2H6 antibody binds to human and mouse LgR5, and was not tested for binding to cynomolgus monkey or rat LgR5.

B1: h8E11.v3 (antibody, V domains shown)
VH: EVQLVQSGAEVKKPGASVKVSCKASGYTFSAYWIEWVRQAPGQGLEWIGEILPGSDSTDYNEKFKVRVTITSDTSTSTVYLELSSLRSEDTAVYYCARGGHYGSLDYWGQGTLVTVSS
VL: DIVMTQSPDSLAVSLGERATINCRASESVDNYGNSFMHWYQQKPGQPPKLLIYLASNLESGVPDRFSGSGSRTDFTLTISSLQAEDVAVYYCQQNYEDPFTFGQGTKVEIKR
notes: VH CDR graft + 71S/78V; also called hu8E11.v3
[1]
  Kd: 4.73 nM
  koff: 0.00053 s⁻¹
  kon: 112000 M⁻¹ s⁻¹

B2: h8E11.v1 (antibody, V domains shown)
VH: EVQLVQSGAEVKKPGASVKVSCKASGYTFSAYWIEWVRQAPGQGLEWIGEILPGSDSTDYNEKFKVRVTITSDTSTSTVYLELSSLRSEDTAVYYCARGGHYGSLDYWGQGTLVTVSS
VL: DIVMTQSPDSLAVSLGERATINCRASESVDNYGNSFMHWYQQKPGQPPKLLIYLASNLESGVPDRFSGSGSGTDFTLTISSLQAEDVAVYYCQQNYEDPFTFGQGTKVEIKR
notes: VH CDR graft + 71S/78V; also called hu8E11.v1
[1]
  Kd: 5.05 nM
  koff: 0.000772 s⁻¹
  kon: 153000 M⁻¹ s⁻¹

B3: h8E11.v5 (antibody, V domains shown)
VH: EVQLVQSGAEVKKPGASVKVSCKASGYTFSAYWIEWVRQAPGQGLEWIGEILPGSDSTDYNEKFKVRVTITRDTSTSTAYLELSSLRSEDTAVYYCARGGHYGSLDYWGQGTLVTVSS
VL: DIVMTQSPDSLAVSLGERATINCRASESVDNYGNSFMHWYQQKPGQPPKLLIYLASNLESGVPDRFSGSGSGTDFTLTISSLQAEDVAVYYCQQNYEDPFTFGQGTKVEIKR
notes: VH CDR graft + 71R/78A; also called hu8E11.v5
[1]
  Kd: 14.3 nM
  koff: 0.000933 s⁻¹
  kon: 65000 M⁻¹ s⁻¹

B4: h8E11.v8 (antibody, V domains shown)
VH: EVQLVQSGAEVKKPGASVKVSCKASGYTFSAYWIEWVRQAPGQGLEWIGEILPGSDSTDYNEKFKVRVTITADTSTSTAYLELSSLRSEDTAVYYCARGGHYGSLDYWGQGTLVTVSS
VL: DIVMTQSPDSLAVSLGERATINCRASESVDNYGNSFMHWYQQKPGQPPKLLIYLASNLESGVPDRFSGSGSRTDFTLTISSLQAEDVAVYYCQQNYEDPFTFGQGTKVEIKR
notes: VH CDR graft + 71A/78A; also called hu8E11.v8
[1]
  Kd: 8.97 nM
  koff: 0.00217 s⁻¹
  kon: 242000 M⁻¹ s⁻¹

B5: h8E11.v7 (antibody, V domains shown)
VH: EVQLVQSGAEVKKPGASVKVSCKASGYTFSAYWIEWVRQAPGQGLEWIGEILPGSDSTDYNEKFKVRVTITRDTSTSTAYLELSSLRSEDTAVYYCARGGHYGSLDYWGQGTLVTVSS
VL: DIVMTQSPDSLAVSLGERATINCRASESVDNYGNSFMHWYQQKPGQPPKLLIYLASNLESGVPDRFSGSGSRTDFTLTISSLQAEDVAVYYCQQNYEDPFTFGQGTKVEIKR
notes: VH CDR graft + 71R/78A; also called hu8E11.v7
[1]
  Kd: 22.1 nM
  koff: 0.00258 s⁻¹
  kon: 117000 M⁻¹ s⁻¹

B6: h8E11.v6 (antibody, V domains shown)
VH: EVQLVQSGAEVKKPGASVKVSCKASGYTFSAYWIEWVRQAPGQGLEWIGEILPGSDSTDYNEKFKVRVTITADTSTSTAYLELSSLRSEDTAVYYCARGGHYGSLDYWGQGTLVTVSS
VL: DIVMTQSPDSLAVSLGERATINCRASESVDNYGNSFMHWYQQKPGQPPKLLIYLASNLESGVPDRFSGSGSGTDFTLTISSLQAEDVAVYYCQQNYEDPFTFGQGTKVEIKR
notes: VH CDR graft + 71A/78A; also called hu8E11.v6
[1]
  Kd: 14.1 nM
  koff: 0.00202 s⁻¹
  kon: 143000 M⁻¹ s⁻¹

B7: h8E11.v4 (antibody, V domains shown)
VH: EVQLVQSGAEVKKPGASVKVSCKASGYTFSAYWIEWVRQAPGQGLEWIGEILPGSDSTDYNEKFKVRATFTSDTSTSTVYLELSSLRSEDTAVYYCARGGHYGSLDYWGQGTLVTVSS
VL: DIVMTQSPDSLAVSLGERATINCRASESVDNYGNSFMHWYQQKPGQPPKLLIYLASNLESGVPDRFSGSGSRTDFTLTISSLQAEDVAVYYCQQNYEDPFTFGQGTKVEIKR
notes: VH CDR graft + 67A/69F/71S/78V; also called hu8E11.v4
[1]
  Kd: 3.63 nM
  koff: 0.000922 s⁻¹
  kon: 254000 M⁻¹ s⁻¹

B8: monoclonal antibody 2H6 (antibody, V domains shown)
VH: EVQLQQSGPELVKPGTSMKISCKASGYSFTGYTMNWVKQSHKNGLEWIGLINCYNGGTNYNQKFKGKATLTVDKSSSTAFMELLSLTSEDSAVYYCARGGSTMITPRFAYWGQGTLVTVSS
VL: DIVMTQSPSSLTVTAGEKVTMSCKSSQSLLNSGNQKNYLTWFQQKPGQPPKLLIYWASTRESGVPDRFTGSGSGTDFTLTISNVQAEDLAVYYCQNDYSFPFTFGQGTKVEIKR
notes: The variable domains are the same in both forms; also called m2H6; mu2H6
[2]
  Kd: 208 nM
[3]
  binding result: no binding (tested: 10 µg/ml)
[4]
  binding result: no binding (tested: 10 µg/ml)
[5]
  binding result: no binding (tested: 10 µg/ml)
[6]
  binding result: binds
